Laboratory results: paper doi:10.1101/2020.07.27.223255, “Bro1 stimulates Vps4 activity to promote Intralumenal Vesicle Formation during Multivesicular Body biogenesis” (bioRxiv, 2020)

T1: His6-Vps4 (S. cerevisiae, UniProt P52917 1-437)
T1 sequence (looked up): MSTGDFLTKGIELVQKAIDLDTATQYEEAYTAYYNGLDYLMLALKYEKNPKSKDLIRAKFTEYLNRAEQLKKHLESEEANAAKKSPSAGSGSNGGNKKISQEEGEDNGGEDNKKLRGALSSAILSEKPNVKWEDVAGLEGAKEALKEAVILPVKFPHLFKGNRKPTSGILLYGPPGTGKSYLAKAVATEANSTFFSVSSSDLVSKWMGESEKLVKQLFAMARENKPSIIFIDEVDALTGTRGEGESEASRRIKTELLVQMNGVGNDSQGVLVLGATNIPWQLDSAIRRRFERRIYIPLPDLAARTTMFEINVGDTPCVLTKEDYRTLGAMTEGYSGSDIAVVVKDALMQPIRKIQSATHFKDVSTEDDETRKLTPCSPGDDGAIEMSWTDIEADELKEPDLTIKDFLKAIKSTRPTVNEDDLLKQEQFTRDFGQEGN


How the values were obtained:
His6-Vps4 [1] = biological target: T1, His6-Vps4; test: cell-based or functional assay
His6-Vps4 [2] = biological target: T1, His6-Vps4; test: pull-down; His6-Vps4 (10 μg) or His6-MIT on Ni-NTA agarose; 6 μg Bro1V or mutants in ATPase buffer + 0.02% Tween20, 1 hour at 30°C; four washes NiA buffer with 10 mM imidazole; eluted with 200 mM imidazole; protein stain and anti-Bro1 immunoblot; settings: both partners purified

Row | Binder | Vps4 (0.5μM) ATPase activity with titration of Bro1V (10nM-8μM): maximal stimulation over basal activity (Vps4 of the ATPase assay came from GST-Vps4) (His6-Vps4 [1]) [fold] | binding result (His6-Vps4 [2])
1 | Bro1 V domain (Bro1V, aa 370-709), GST tag removed (domain or fragment, S. cerevisiae, UniProt P48582 370-709, looked up) DVYEKESIYSEEKATLLRKQVEETETANLEYSSFIEFTNLPRLLSDLEKQFSDGNIFSNTDTQGQLMRDQIQTWCKFIQTNEFRDIEEQMNKIVFKRKQILEILSALPNDQKENVTKLKSSLVAASNSDEKLFACVKPHIVEINLLNDNGKIWKKFDEFNRNTPPQPSLLDIDDTKNDKILELLKQVKGHAEDLRTLKEERSRNLSELRDEINNDDITKLLIINKGKSDVELKDLFEVELEKFEPLSTRIEATIYKQSSMIDDIKAKLDEIFHLSNFKDKSSGEEKFLEDRKNFFDKLQEAVKSFSIFASDLPKGIEFYDSLFNMSRDLAERVRVAKQTE | 2.6 | –
2 | Bro1V^M4 (V505A, H508A, I512A), GST tag removed (domain or fragment, S. cerevisiae, UniProt P48582 370-709, looked up, Bro1 V domain, S. cerevisiae, aa 370-709, mutant M4; source: E. coli BL21-DE3, purified (Glutathione Sepharose 4B, AcTEV protease to remove GST, Superdex200 size exclusion)) DVYEKESIYSEEKATLLRKQVEETETANLEYSSFIEFTNLPRLLSDLEKQFSDGNIFSNTDTQGQLMRDQIQTWCKFIQTNEFRDIEEQMNKIVFKRKQILEILSALPNDQKENVTKLKSSLVAASNSDEKLFACAKPAIVEANLLNDNGKIWKKFDEFNRNTPPQPSLLDIDDTKNDKILELLKQVKGHAEDLRTLKEERSRNLSELRDEINNDDITKLLIINKGKSDVELKDLFEVELEKFEPLSTRIEATIYKQSSMIDDIKAKLDEIFHLSNFKDKSSGEEKFLEDRKNFFDKLQEAVKSFSIFASDLPKGIEFYDSLFNMSRDLAERVRVAKQTE | – | binds
3 | Bro1V^M8 (E686A, L691D), GST tag removed (domain or fragment, S. cerevisiae, UniProt P48582 370-709, looked up, Bro1 V domain, S. cerevisiae, aa 370-709, mutant M8; source: E. coli BL21-DE3, purified (Glutathione Sepharose 4B, AcTEV protease to remove GST, Superdex200 size exclusion)) DVYEKESIYSEEKATLLRKQVEETETANLEYSSFIEFTNLPRLLSDLEKQFSDGNIFSNTDTQGQLMRDQIQTWCKFIQTNEFRDIEEQMNKIVFKRKQILEILSALPNDQKENVTKLKSSLVAASNSDEKLFACVKPHIVEINLLNDNGKIWKKFDEFNRNTPPQPSLLDIDDTKNDKILELLKQVKGHAEDLRTLKEERSRNLSELRDEINNDDITKLLIINKGKSDVELKDLFEVELEKFEPLSTRIEATIYKQSSMIDDIKAKLDEIFHLSNFKDKSSGEEKFLEDRKNFFDKLQEAVKSFSIFASDLPKGIAFYDSDFNMSRDLAERVRVAKQTE | – | binds

Now from value to binder:

Row | Vps4 (0.5μM) ATPase activity with titration of Bro1V (10nM-8μM): maximal stimulation over basal activity (Vps4 of the ATPase assay came from GST-Vps4) (His6-Vps4 [1]) [fold] | binding result (His6-Vps4 [2]) | Binder
4 | – | binds | Bro1V^M9 (T587D), GST tag removed (domain or fragment, S. cerevisiae, UniProt P48582 370-709, looked up, Bro1 V domain, S. cerevisiae, aa 370-709, mutant M9; source: E. coli BL21-DE3, purified (Glutathione Sepharose 4B, AcTEV protease to remove GST, Superdex200 size exclusion)) DVYEKESIYSEEKATLLRKQVEETETANLEYSSFIEFTNLPRLLSDLEKQFSDGNIFSNTDTQGQLMRDQIQTWCKFIQTNEFRDIEEQMNKIVFKRKQILEILSALPNDQKENVTKLKSSLVAASNSDEKLFACVKPHIVEINLLNDNGKIWKKFDEFNRNTPPQPSLLDIDDTKNDKILELLKQVKGHAEDLRTLKEERSRNLSELRDEINNDDIDKLLIINKGKSDVELKDLFEVELEKFEPLSTRIEATIYKQSSMIDDIKAKLDEIFHLSNFKDKSSGEEKFLEDRKNFFDKLQEAVKSFSIFASDLPKGIEFYDSLFNMSRDLAERVRVAKQTE
5 | – | binds | Bro1V^M10 (K481D), GST tag removed (domain or fragment, S. cerevisiae, UniProt P48582 370-709, looked up, Bro1 V domain, S. cerevisiae, aa 370-709, mutant M10; source: E. coli BL21-DE3, purified (Glutathione Sepharose 4B, AcTEV protease to remove GST, Superdex200 size exclusion)) DVYEKESIYSEEKATLLRKQVEETETANLEYSSFIEFTNLPRLLSDLEKQFSDGNIFSNTDTQGQLMRDQIQTWCKFIQTNEFRDIEEQMNKIVFKRKQILEILSALPNDQDENVTKLKSSLVAASNSDEKLFACVKPHIVEINLLNDNGKIWKKFDEFNRNTPPQPSLLDIDDTKNDKILELLKQVKGHAEDLRTLKEERSRNLSELRDEINNDDITKLLIINKGKSDVELKDLFEVELEKFEPLSTRIEATIYKQSSMIDDIKAKLDEIFHLSNFKDKSSGEEKFLEDRKNFFDKLQEAVKSFSIFASDLPKGIEFYDSLFNMSRDLAERVRVAKQTE
